In experiment [1] the target is HzABCa7 (Helicoverpa zea). Nature of the experiment: cell-based or functional assay.
Experiment [2] deals with SfABCa3 (Spodoptera frugiperda). Put plainly: cell-based or functional assay.
For experiment [3], the target named is SfABCc2 (Spodoptera frugiperda). Put plainly: cell-based or functional assay.
Experiment [4] concerns the target Spodoptera_frugiperda_ABC_transporter (Spodoptera frugiperda). Nature of the experiment: cell-based or functional assay.
Another experiment deals with T1, Cry3Aa (Bacillus thuringiensis, UniProt P0A379 1-644).
T1 sequence: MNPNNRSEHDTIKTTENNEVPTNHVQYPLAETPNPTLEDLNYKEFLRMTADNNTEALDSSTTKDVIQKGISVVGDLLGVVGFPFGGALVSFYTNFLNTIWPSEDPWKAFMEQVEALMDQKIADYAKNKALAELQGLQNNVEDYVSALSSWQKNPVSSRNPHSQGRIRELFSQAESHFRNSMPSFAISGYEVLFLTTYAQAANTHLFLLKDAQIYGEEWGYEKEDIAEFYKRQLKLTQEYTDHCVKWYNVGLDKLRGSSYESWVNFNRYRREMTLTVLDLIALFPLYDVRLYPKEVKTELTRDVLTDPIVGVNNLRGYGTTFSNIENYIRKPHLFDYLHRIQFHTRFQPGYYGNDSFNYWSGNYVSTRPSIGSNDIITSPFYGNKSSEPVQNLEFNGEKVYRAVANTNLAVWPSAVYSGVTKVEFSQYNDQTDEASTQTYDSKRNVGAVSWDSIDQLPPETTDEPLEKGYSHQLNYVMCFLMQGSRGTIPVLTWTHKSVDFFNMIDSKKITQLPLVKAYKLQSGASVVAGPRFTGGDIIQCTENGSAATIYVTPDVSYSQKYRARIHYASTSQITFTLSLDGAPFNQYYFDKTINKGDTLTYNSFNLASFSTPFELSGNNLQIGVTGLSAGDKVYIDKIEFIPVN
Put plainly: yeast two-hybrid.

Consider three molecules from patent US20260217787A1 (MONSANTO TECHNOLOGY, published 2026).

Consider “Cry2Ab as used in the Sf9 cytotoxicity assays (ligand)”, for which the Sytox Green Fluresence, treatment (control buffer 5398) in experiment [1] is 55300; in experiment [2], 30600.

On to “Cry1Ac as used in the Sf9 cytotoxicity assays (from UniProt P05068 29-623) (ligand)”, for which the Sytox Green Fluresence, treatment (control buffer 645) in experiment [3] is 20700; in experiment [4], 18600.

B1: Aminopeptidase Fragment 5 (receptor)
chain: GFPVVNAVFNGKNVTFSQKRFLYTGNNNTQWYIPVTYRLSNSSSYETFWLAPNSSVTILNNLTDKDWLIVNDDSRGYYRVKYCKRLTQRIQSLLNQNHTQISELNRAQILDDSLNLARAGYIKYSEAFELLEYLKNETSYFPWFTTIKNMDYLVTRLGANTELGKRTNAMILDLISQISANISTTKWEEIDQVTTLKLQRVWADACKRGQASCISETKRLFQALRLNKTSVNPNIRDVVYCNALRNSNNIAADWEFLWNRLLISIHPQEDLYILLSLGCTTHKPYLTRLLDATINSTSVIKLQNLYTVWNSVGSASKEGLDLAFEYFVNNYKKIIEYYPDGISLLSQLANRFTTNAEVTKLQQFADRLEKNSTIRAVANSALTTARQNLQFRARIEDDLNDYFKIDNSGSSV
notes: Yeast two-hybrid construct; also called Aminopeptidase N fragment 5
As for B1, the binding result with Cry3Aa is “no binding”.
